Results taken from publication PMC4522605, “Evolution of plant δ^1-pyrroline-5-carboxylate reductases from phylogenetic and structural perspectives” (Frontiers in Plant Science, 2015).

B1: Arabidopsis thaliana P5CR (δ1-pyrroline-5-carboxylate reductase) (enzyme, UniProt P54904 1-276, looked up)
chain: MEILPIPAESFKVGFIGAGKMAESIARGVVASGVLPPNRICTAVHSNLNRRDVFESFGVNVFSTSEEVVKESDVVIFSVKPQVVKKAVTELKSKLSKNKILVSVAAGIKLNDLQEWSGQDRFIRVMPNTPAAVGEAASVMSLGTGATEEDGAIVAMLFGAVGKILKADEKMFDAVTGLSGSGPAYIFLAIEALADGGVAAGLPRELALSLASQTVLGAATMVSKTGKHPGVLKDDVTSPGGTTIAGVHELEKGSFRATLMNAVVAAAKRSRELSQS
notes: Pyrroline-5-carboxylate reductase of Arabidopsis thaliana; coding gene cloned into pMCSG68 (construct as in Giberti et al., 2014); also called AtP5CR; P5C reductase; source: E. coli BL21 Gold, purified (HisTrap HP, TEV cleavage, second HisTrap HP pass); not shown: His6, N-terminal, cleaved; copies: 10

Legend:
[1] = target: Bacillus cereus P5CR (Bc_2977), full-length (Bacillus cereus); assay: SEC; HiLoad 16/600 Superdex 200 Prep Grade; 1.5 mL of purified protein at ~5 mg/mL; run in lysis buffer (50 mM HEPES pH 8.0, 500 mM NaCl, 5% glycerol, 20 mM imidazole, 10 mM β-mercaptoethanol); calibrated with chymotrypsinogen A, albumin, SpP5CR decamer (275 kDa) and thyroglobulin
[2] = target: the molecule itself; assay: as above

| Molecule | stoichiometry N [1] | stoichiometry N [2] |
| --- | --- | --- |
| Bacillus cereus P5CR (Bc_2977), full-length (enzyme) | 10 |  |
| B1 |  | 10 |
